In the supplement of paper PMC9170038:

Legend:
MS2 coat protein [1] = test: apparent KD of MS2 coat protein, switch ON state; designed switch direction (-1 OFF switch, 1 ON switch): -1; higher = weaker reporter binding; settings: FMN input: 0 or 200 uM; Eterna round: R93 (includes R88 designs)
Method in brief: (§1)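 Apparent KD is reported per design as the median of normalised binding-curve fits across its clusters. The RNA switches were made by on-chip transcription from Illumina sequencing clusters. SNAP-549-labelled MS2 coat protein was then added in twofold steps (0.7 or 1.5 nM to 3 µM; 0.8–1.5 h to 10–20 min per step) in 100 mM Tris-HCl pH 7.5, 80 mM KCl, 4 mM MgCl2, without or with constant ligand.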

MS2 coat protein [2] = test: apparent KD of MS2 coat protein, switch OFF state (with FMN for OFF switches, without FMN for ON switches); designed switch direction (-1 OFF switch, 1 ON switch): -1; higher = weaker reporter binding; settings: FMN input: 0 or 200 uM; Eterna round: R93 (includes R88 designs)
Method in brief: as §1

MS2 coat protein [3] = test: apparent KD of MS2 coat protein; designed switch direction (-1 OFF switch, 1 ON switch): 1; higher = weaker reporter binding
Method in brief: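 Stalled E. coli RNA polymerase transcribed designed RNA switches on Illumina chips, which were then titrated with SNAP-549-labelled MS2 coat protein, doubling from 0.7 or 1.5 nM to 3 µM. Steps lasted from 0.8–1.5 h at the lowest concentration to 10–20 min at the highest. The apparent KD is each design's median over clusters of curve-fitted normalised fluorescence.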

[4] = input ligand: microRNA oligo, concentration not stated

Row | Sequence | apparent KD of MS2 coat protein (MS2 coat protein [1]) | apparent KD of MS2 coat protein (MS2 coat protein [2]) | also measured
1 | GGUUGGCGAGGAUAUACAUGAGGAUCACCCAUGUGAGAGAAAAAAGUGAGUAAGAAAAGUAGAAGGCGCUGACG [salish99-ex3-33] | 0.0499 µM | 4.71 µM | 
2 | AAUGGUGCAGGAUAUACAUGAGGAUCACCCAUGUACAUCAGACAUAUGGUCGAAGCAUGUAGAAGGGCACCAAA [Ex 3May 56] | 0.145 µM | 0.183 µM | 
3 | AAGAUCAGAGGAUAUACAUAAGGUGAUGGAGACAUCGCCAAACAUGAGGAUCACCCAUGUAGAAGGCUGAUCAA [Mat - Exclusion 2 - JL mod - D62] | 0.0368 µM | 0.0497 µM | 
4 | AAAAGACAUGAGGAUCACCCAUGUGAGGAUAUCGGAAAAGGAAAAAUAAAAAAGAAGACGAGAAGGCACACCAA [Mat - Exclusion 1 - Eli mod - D75] | 0.0439 µM | 0.0482 µM | 
5 | AAAAAGUCAGGAUAUGUCAAAAGUCACAAAAGUGACAAAAGACAGAAGGGACAUGAGGAUCACCCAUGUGGAAA [Mod of Eli - Late G segment 1] | 0.0893 µM | 0.134 µM | 
6 | AAGAACUGAGGAUAUACUUUGGGAAAAGAAAAGAUGAUGUUACAUGAGGAUCACCCAUGUAGAAGGCAGAAGAA [Mat - Exclusion 2 - Mod - D153] | 0.027 µM | 0.037 µM | 
7 | AAAAGACAUGAGGAUCACCCAUGUCAGGAUAUGACUUGAAAAAUAAAAUAAAAACAUGUCAGAAGGGACAUGAA [Design 46: Sub-opt DB] | 0.0285 µM | 0.0252 µM | 
8 | AAAAUACAUGAGGAUCACCCAUGUGAGGAUAUGCAAAACCCAUAUAAAAAGGGAAAAAGCAGAAGGCACAAAAA [wbt round 1 mod 15] | 0.033 µM | 0.0529 µM | 
9 | AAAGACAGAGGAUAUACAUGAGGAUCACCCAUGUGGCGAAAAAAAAUCCAUUUGGCAUGUAGAAGGCUGUAUGA [Orerzadi] | 0.0669 µM | 0.0513 µM | 
10 | AGAAAGCGAGGAUAUGCACGGGAAGAAAGAAGAGAGAAAAAACAUGAGGAUCACCCAUGUAGAAGGUGUAUAAA [JR_Exc002_Sub1713] | 0.0384 µM | 0.0258 µM | 
11 | AAACAGGGAGGAUAUACACCAUACAAACCUCUAAACAAAAGACAUGAGGAUCACCCAUGUAGAAGGCCCAACAA [Default title] | 0.0575 µM | 0.103 µM | 
12 | AACUGACAUGAGGAUCACCCAUGUCAGGAUAUGACUUCGAAAAAAAAAAAAAACGAUGUCAGAAGGGACAUGGA [Design 66: Sub-opt N] | 0.0175 µM | 0.0272 µM | 
13 | AGAUCAUCAGGAUAUACAUAGGUGAAAAAAGUAAAUCCACUACAUGAGGAUCACCCAUGUAGAAGGGAUGAUCA [Ex2 Design 176: Random 4] | 0.0391 µM | 0.0303 µM | 
14 | AAGAACUGAGGAUAUACAAAAUAAAAGAAAAGAAAGAAAGAACAUGAGGAUCACCCAUGUAGAAGGCAGAAGAA [Sekhemre Khutawy Sobekhotep I] | 0.0276 µM | 0.0197 µM | 
15 | AAAAGGUCAGGAUAUGCCCACCUGGUGGAAAAACCAGGUGGGCAGAAGGGACAUGAGGAUCACCCAUGUAAAAA [Excls4-Ii] | 0.0531 µM | 0.0782 µM | 
16 | GAAUGACUAGGAUAUACAUGAGGAUCACCCAUGUGUUAAAAUAAAUACACAAAAGAAAGUAGAAGGAGUCAAAG [Mat - Exclusion 3 - Mayanna mod - D126] | 0.021 µM | 0.0503 µM | 
17 | AAGAAGUGAGGAUAUGUCUGUGCGAAAAAAAAAAAGUGCAGACAGAAGGCACAUGAGGAUCACCCAUGUGGGAA [Florian 65% 6] | 0.0766 µM | 0.0872 µM | 
18 | AAGAAGCGAGGAUAUACAUGAGGAUCACCCAUGUAAAAGAAAGAGGGAAAAGAGAAAAGUAGAAGGCGCAAGAA [Philip III Arrhidaeus] | 0.0842 µM | 0.123 µM | 
19 | AGUGAGUGAGGAUAUGACUGAAGAAUAAAAGAAAUAACAAGUCAGAAGGCACAUGAGGAUCACCCAUGUACACA [May 60] | 0.0288 µM | 0.0256 µM | 
20 | AAAGGACAUGAGGAUCACCCAUGUGAGGAUAUGCUCUACGAACGAAUACACAUGAGAAGCAGAAGGCACAUAAG [try 1] | 0.0438 µM | 0.142 µM | 

Row | Sequence | apparent KD of MS2 coat protein (MS2 coat protein [1]) | apparent KD of MS2 coat protein (MS2 coat protein [2]) | also measured
21 | AACAGUACAGGAUAUACAUGAGGAUCACCCAUGUGGGAGAAAAGAUCGAGAGAUCAAUGUAGAAGGGUACUGGA [JL In the Red 07] | 0.115 µM | 0.0801 µM | 
22 | AGCUAGUCAGGAUAUACGAACAUGUCAAAAGACGUGAGAGAACAUGAGGAUCACCCAUGUAGAAGGGACUAGCA [Mat - Exclusion 2 - JL-Eli mod - D47] | 0.0187 µM | 0.0131 µM | 
23 | AGGUAGUCAGGAUAUACAAACAUGUCAAAAGACGUGAAAAAACAUGAGGAUCACCCAUGUAGAAGGGACUACCA [Mat - Exclusion 2 - JL mod - D21] | 0.018 µM | 0.0163 µM | 
24 | AAGGAUCGAGGAUAUACAUAGAUACAGAUACAUGUAGAACUACAUGAGGAUCACCCAUGUAGAAGGCGAUCAUA [AJ 30] | 0.0239 µM | 0.0563 µM | 
25 | AAAAAACAUGAGGAUCACCCAUGUGAGGAUAUCCAGAAGGGAAUAAAAUAACUCGAAAGGAGAAGGCGCAAAAA [Ex 1 May 34] | 0.0318 µM | 0.0262 µM | 
26 | GAUAGGCGAGGAUAUACAUGAGGAUCACCCAUGUAAGUAAGCCUGGCUGAAACUGAAUGUAGAAGGCGCAAAUU [Mat - Exclusion 3 - Neo mod - D70] | 0.0178 µM | 0.0677 µM | 
27 | AAAAAGCGAGGAUAUGCAAGAAAAAAAAAAAAAAAAAAGGGACAUGAGGAUCACCCAUGUAGAAGGCGCAAAAA [Diamond 65] | 0.0549 µM | 0.038 µM | 
28 | AACAAGACAGGAUAUACAUGAGGAUCACCCAUGUCACAACAAAGCAGCGCAACACAAAGUAGAAGGGUCAUGAA [Ruby 12] | 0.0451 µM | 0.0469 µM | 
29 | AAUUAGGUAGGAUAUACAUGAGGAUCACCCAUGUAGGAAAAAAGCUACGAAAAAGAAUGUAGAAGGACCUAAAA [Ex 3 Sunny] | 0.0132 µM | 0.0187 µM | 
30 | AAAGAUACAGGAUAUACAUGAGGAUCACCCAUGUGGAACCAAAAAUGGGAAAAAGAAAGUAGAAGGGUAUAAAA [Ex 3 May 37] | 0.0388 µM | 0.0357 µM | 
31 | AGUUGGCGAGGAUAUACAUGAGGAUCACCCAUGUGAGAGAAAAAAGUGAGAAAGAAAAGUAGAAGGCGCUCACA [JL Lego Mod 12] | 0.0621 µM | 0.0497 µM | 
32 | AAAUGACAUGAGGAUCACCCAUGUCAGGAUAUGACUUGAAAAUAAAAUAAAAAACAUGUCAGAAGGGACAUGAA [Design 49: Sub-opt EB] | 0.0135 µM | 0.0124 µM | 
33 | AUACAUGAGGAUCACCCAUGUAAUUAAUUAAUUAAUAAGAUCAAGGAUAUCAGCUCGAAUAGAGCUGAGAAGGUGAUCACAUGU [SSNG3/21-D1] (Eterna round: R96, puzzle: Same State NG 3) |  |  | apparent KD of MS2 coat protein (MS2 coat protein [3]; [4]): 0.177 µM
34 | GAGGGCGAAAGCAACAUGAGGAUCACCCAUGUCCUCGGAGGGCAGGAUAUCCGGCGGUAGCCGAAGGAGAAGGGUCGAAAAGAA [AK SSNG3-V2-34] (Eterna round: R96, puzzle: Same State NG 3) |  |  | apparent KD of MS2 coat protein (MS2 coat protein [3]; input ligand: FMN 200 uM): 0.0348 µM; apparent KD of MS2 coat protein (MS2 coat protein [3]; [4]): 0.292 µM; apparent KD of MS2 coat protein (MS2 coat protein [3]; input ligand: none): 0.0611 µM
35 | GGUCGGACUCACAUGAGGAUCACCCAUGUUGGCGAAAGCCGGCAGGAUAUCUGUCCGAAAAGGUCAGAGAAGGGUCAACCGACC [Fiskers NG3ss - 59] (Eterna round: R96, puzzle: Same State NG 3) |  |  | apparent KD of MS2 coat protein (MS2 coat protein [3]; input ligand: FMN 200 uM): 0.322 µM; apparent KD of MS2 coat protein (MS2 coat protein [3]; [4]): 0.0824 µM; apparent KD of MS2 coat protein (MS2 coat protein [3]; input ligand: none): 0.267 µM
36 | UGUUGUUAAUUAGGAUAUGGUCACAUGAGGAUCACCCAUGUAAUGUCGAUGCUAUGUGGAUUUGAUCAGAAGGAAUGGCUAACA [SameState NG2 #97] (Eterna round: R96, puzzle: Same State NG 2) |  |  | apparent KD of MS2 coat protein (MS2 coat protein [3]; input ligand: FMN 200 uM): 0.105 µM; apparent KD of MS2 coat protein (MS2 coat protein [3]; [4]): 0.242 µM; apparent KD of MS2 coat protein (MS2 coat protein [3]; input ligand: none): 0.341 µM
37 | GCCCGACUCACAGGAUAUGUACCGCCCGAAACAACAGAAGGGUGAGAUCCGGCAUGCACUGACAUGAGGAUCACCCAUGUCCUU [Gebege] (Eterna round: R96, puzzle: Same State NG 1) |  |  | apparent KD of MS2 coat protein (MS2 coat protein [3]; input ligand: FMN 200 uM): 0.52 µM; apparent KD of MS2 coat protein (MS2 coat protein [3]; [4]): 0.311 µM; apparent KD of MS2 coat protein (MS2 coat protein [3]; input ligand: none): 0.765 µM
38 | UUAUAACAUGAGGAUCACCCAUGUCAUCUAAGUCGAGGAUAUGGGCAAAUAAUAUAAGAACCAGAAGGCGAAUAUU [Mat - Same State 1 - Mod of UCT - D46] (puzzle: Same State 1) |  |  | apparent KD of MS2 coat protein (MS2 coat protein [3]; Eterna round: R95, input ligand: FMN 200 uM): 0.106 µM; apparent KD of MS2 coat protein (MS2 coat protein [3]; Eterna round: R95, input ligand: microRNA oligo, concentration not stated): 0.147 µM; apparent KD of MS2 coat protein (MS2 coat protein [3]; Eterna round: R95, input ligand: none): 0.232 µM
39 | AUAAAACAUGAGGAUCACCCAUGUCAACAAAGUCGAGGAUAUGGGCAAAGAAAAUAAGAACCAGAAGGCGAAUAAU [salish99_ss1_r3_056] (Eterna round: R96, puzzle: Same State 1) |  |  | apparent KD of MS2 coat protein (MS2 coat protein [3]; [4]): 0.245 µM
